The results in this text go back to US20240052042A1 (Novartis, published 2024).

For assay [1], the target named is T1, rat NPR1 (rNPR1) (rat, UniProt P18910 29-469, limits assumed).
T1 construct: Soluble antigen
T1 sequence: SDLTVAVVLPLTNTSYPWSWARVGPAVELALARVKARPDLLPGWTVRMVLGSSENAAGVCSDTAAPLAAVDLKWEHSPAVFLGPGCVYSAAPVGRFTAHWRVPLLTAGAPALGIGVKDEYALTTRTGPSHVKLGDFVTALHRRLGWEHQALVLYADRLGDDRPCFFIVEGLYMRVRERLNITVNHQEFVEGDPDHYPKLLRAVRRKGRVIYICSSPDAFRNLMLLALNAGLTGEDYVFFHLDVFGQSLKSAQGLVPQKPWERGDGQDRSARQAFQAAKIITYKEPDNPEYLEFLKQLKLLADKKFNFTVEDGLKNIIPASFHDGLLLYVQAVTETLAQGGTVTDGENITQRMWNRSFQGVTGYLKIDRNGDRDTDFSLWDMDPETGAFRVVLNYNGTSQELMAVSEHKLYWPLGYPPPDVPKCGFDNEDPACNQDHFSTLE
The assay can be described thus: SET, FabCys.

Assay [2] concerns the target T1, rat NPR1 (rNPR1). The assay can be described thus: SET, FabCys. This is another data set of the same source.
The target of a further assay is T2, hNPR1-ANP complex (human, UniProt P01160 124-151, limits assumed).
T2 construct: hNPR1 antigen in the presence of ANP; also called hNPR1 + 100 nM ANP
T2 sequence: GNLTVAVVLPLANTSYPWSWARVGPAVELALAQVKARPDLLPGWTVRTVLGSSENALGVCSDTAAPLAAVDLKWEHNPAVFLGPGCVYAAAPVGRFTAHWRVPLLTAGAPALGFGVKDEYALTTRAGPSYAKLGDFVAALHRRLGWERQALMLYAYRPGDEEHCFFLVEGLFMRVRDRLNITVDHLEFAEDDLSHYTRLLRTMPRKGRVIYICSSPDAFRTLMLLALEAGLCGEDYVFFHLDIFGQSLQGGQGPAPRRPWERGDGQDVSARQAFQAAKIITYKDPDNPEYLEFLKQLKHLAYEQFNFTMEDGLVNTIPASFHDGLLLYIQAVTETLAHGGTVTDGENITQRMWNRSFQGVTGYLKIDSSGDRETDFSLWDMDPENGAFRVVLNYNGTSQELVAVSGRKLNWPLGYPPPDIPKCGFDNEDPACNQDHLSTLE
T2 sequence (peptide): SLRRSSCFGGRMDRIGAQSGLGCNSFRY
The assay can be described thus: SET, FabCys.

For assay [3], the target named is T3, human Natriuretic Peptide Receptor 1 (hNPR1) (human, UniProt P16066 33-473, limits assumed).
T3 construct: pannings used NPR1-hFc; also called NPR1-hFc
T3 sequence: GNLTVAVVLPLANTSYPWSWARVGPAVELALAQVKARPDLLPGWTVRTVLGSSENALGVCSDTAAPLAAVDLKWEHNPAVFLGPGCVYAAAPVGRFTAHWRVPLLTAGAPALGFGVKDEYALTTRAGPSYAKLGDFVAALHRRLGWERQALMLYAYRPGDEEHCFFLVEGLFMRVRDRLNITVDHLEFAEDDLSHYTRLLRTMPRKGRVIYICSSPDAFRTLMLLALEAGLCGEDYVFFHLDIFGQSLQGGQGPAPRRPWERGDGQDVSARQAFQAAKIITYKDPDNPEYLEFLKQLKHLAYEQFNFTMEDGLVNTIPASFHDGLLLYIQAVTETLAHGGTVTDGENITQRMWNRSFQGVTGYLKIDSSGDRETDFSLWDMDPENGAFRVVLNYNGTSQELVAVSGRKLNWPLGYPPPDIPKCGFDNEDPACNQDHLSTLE
The assay can be described thus: SET, FabCys.

In the next assay the target is T4, rNPR1-ANP complex (rat, UniProt P01160 124-151 (human entry), limits assumed).
T4 construct: rNPR1 antigen in the presence of ANP; also called rNPR1 + 100 nM ANP
T4 sequence: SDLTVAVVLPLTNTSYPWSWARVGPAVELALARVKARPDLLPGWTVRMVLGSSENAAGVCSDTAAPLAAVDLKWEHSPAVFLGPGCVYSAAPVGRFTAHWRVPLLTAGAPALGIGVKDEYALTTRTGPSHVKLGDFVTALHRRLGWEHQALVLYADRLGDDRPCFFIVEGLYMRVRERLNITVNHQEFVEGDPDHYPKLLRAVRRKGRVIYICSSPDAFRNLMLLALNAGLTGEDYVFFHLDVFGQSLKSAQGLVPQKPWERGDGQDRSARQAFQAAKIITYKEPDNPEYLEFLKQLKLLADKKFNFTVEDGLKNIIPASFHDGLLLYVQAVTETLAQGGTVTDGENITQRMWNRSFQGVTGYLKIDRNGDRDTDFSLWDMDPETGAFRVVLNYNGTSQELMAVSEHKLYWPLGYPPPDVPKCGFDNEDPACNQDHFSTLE
T4 sequence (peptide): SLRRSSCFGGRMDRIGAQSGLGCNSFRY
The assay can be described thus: SET, FabCys.

Assay [4] has as its target T5, human NPR1 on CHO-K1 cells (human, UniProt P16066 33-1061).
T5 sequence: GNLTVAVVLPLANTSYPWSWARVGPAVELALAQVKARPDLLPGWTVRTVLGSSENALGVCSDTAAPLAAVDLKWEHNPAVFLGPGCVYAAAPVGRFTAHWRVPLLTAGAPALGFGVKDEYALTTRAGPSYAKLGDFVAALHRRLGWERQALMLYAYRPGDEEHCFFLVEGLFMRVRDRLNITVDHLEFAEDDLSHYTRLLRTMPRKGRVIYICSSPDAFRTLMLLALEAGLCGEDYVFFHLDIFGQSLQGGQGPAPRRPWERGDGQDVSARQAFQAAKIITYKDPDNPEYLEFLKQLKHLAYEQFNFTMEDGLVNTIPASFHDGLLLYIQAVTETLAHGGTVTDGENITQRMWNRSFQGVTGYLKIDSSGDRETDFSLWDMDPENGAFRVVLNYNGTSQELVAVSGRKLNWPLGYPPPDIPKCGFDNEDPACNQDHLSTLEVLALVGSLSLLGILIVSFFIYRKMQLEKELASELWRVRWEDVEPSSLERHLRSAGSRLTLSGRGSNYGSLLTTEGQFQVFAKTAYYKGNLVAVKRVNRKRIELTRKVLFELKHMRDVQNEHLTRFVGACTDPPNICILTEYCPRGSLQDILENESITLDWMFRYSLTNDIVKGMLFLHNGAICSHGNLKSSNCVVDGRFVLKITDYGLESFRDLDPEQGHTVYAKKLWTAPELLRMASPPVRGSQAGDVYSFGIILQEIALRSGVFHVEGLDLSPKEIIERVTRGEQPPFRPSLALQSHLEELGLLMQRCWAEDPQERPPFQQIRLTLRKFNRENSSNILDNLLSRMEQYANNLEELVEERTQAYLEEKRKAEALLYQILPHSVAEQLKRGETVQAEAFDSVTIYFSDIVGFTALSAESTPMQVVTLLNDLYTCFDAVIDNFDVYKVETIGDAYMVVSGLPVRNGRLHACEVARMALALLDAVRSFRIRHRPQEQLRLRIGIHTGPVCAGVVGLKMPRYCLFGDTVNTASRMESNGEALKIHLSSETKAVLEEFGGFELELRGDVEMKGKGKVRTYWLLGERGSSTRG
In words: cell-based or functional assay.

B1: XX01 (FabCys format) (Fab, V domains shown)
VH: EVQLLESGGGLVQPGGSLRLSCAASGFTFNTHYIHWVRQAPGKGLEWVSSISSSGQSTYYADSVKGRFTISRDNSKNTLYLQMNSLRAEDTAVYYCARERGYVYYHMFDPWGQGTLVTVSS
VL: DIVLTQSPATLSLSPGERATLSCRASQSITRNYLAWYQQKPGQAPRLLIYGASSRATGIPARFSGSGSGTDFTLTISSLEPEDFAVYYCQQHSMYPRTFGQGTKVEIK
notes: Monovalent FabCys
For orientation: Kd means a measure of binding affinity in units of concentration. A low value points to tighter binding. In the case of B1, the “rat/human KD ratio” value with rat NPR1 (rNPR1) [1] is less than 5. For the same molecule, the Kd with rat NPR1 (rNPR1) [2] turned out to be 1.4 nM; in the assay with hNPR1-ANP complex, 0.3 nM; in assay [3], 43 nM; with rNPR1-ANP complex, 0.5 nM.

B2: XX08 (FabCys format) (Fab, V domains shown)
VH: EVQLLESGGGLVQPGGSLRLSCAASGFTFNTHYIHWVRQAPGKGLEWVSSIGGQGGMTLYADSVKGRFTISRDNSKNTLYLQMNSLRAEDTAVYYCARERGYVYYHMFDPWGQGTLVTVSS
VL: DIVLTQSPATLSLSPGERATLSCRASQSITRNYLAWYQQKPGQAPRLLIYGASSRATGIPARFSGSGSGTDFTLTISSLEPEDFAVYYCQQHSMYPRTFGQGTKVEIK
notes: Monovalent FabCys
On to B2, for which, in the assay with rat NPR1 (rNPR1) [1], the “rat/human KD ratio” value is less than 5. The Kd in the assay with rat NPR1 (rNPR1) [2] worked out at 1.8 nM; with hNPR1-ANP complex, 0.3 nM; in assay [3], 46 nM; in the assay with rNPR1-ANP complex, 0.2 nM.

B3: XX04 (FabCys format) (Fab, V domains shown)
VH: QVQLLESGGGLVQPGGSLRLSCAASGFTFSSYWMNWVRQAPGKGLEWVSAISSDGSYTYYADSVKGRFTISRDNSKNTLYLQMNSLRAEDTAVYYCARDRYSMIYSYGAGAFDYWGQGTLVTVSS
VL: DIQMTQSPSSLSASVGDRVTITCRASQGISSYLAWYQQKPGKAPKLLIYTASTLQSGVPSRFSGSGSGTDFTLTISSLQPEDFATYYCQQEWVKPRTFGQGTKVEIK
notes: Monovalent FabCys
On to B3, for which, in the assay with rat NPR1 (rNPR1) [1], the “rat/human KD ratio” value was less than 5. Further, the Kd with rat NPR1 (rNPR1) [2] was 3.3 nM; in the assay with hNPR1-ANP complex it was 0.1 nM; in assay [3], 32 nM; in the assay with rNPR1-ANP complex, 0.3 nM.

B4: XX06 (FabCys format) (Fab, V domains shown)
VH: QVQLLESGGGLVQPGGSLRLSCAASGFTFSSYWMNWVRQAPGKGLEWVSAISSDGSYTYYADSVKGRFTISRDNSKNTLYLQMNSLRAEDTAVYYCARDRYSMIYSYGAGAFDYWGQGTLVTVSS
VL: DIQMTQSPSSLSASVGDRVTITCRASQGISSYLAWYQQKPGKAPKLLIYTASTLQSGVPSRFSGSGSGTDFTLTISSLQPEDFATYYCQQTWRKPRTFGQGTKVEIK
notes: Monovalent FabCys
Regarding B4, the “rat/human KD ratio” value with rat NPR1 (rNPR1) [1] is less than 5. Moreover, the Kd is 2.3 nM in the assay with rat NPR1 (rNPR1) [2], 0.1 nM in the assay with hNPR1-ANP complex, 10 nM in assay [3] and 0.3 nM in the assay with rNPR1-ANP complex.

B5: XX07 (FabCys format) (Fab, V domains shown)
VH: QVQLLESGGGLVQPGGSLRLSCAASGFTFSSYWMNWVRQAPGKGLEWVSAISSDGSYTYYADSVKGRFTISRDNSKNTLYLQMNSLRAEDTAVYYCARDRYSMIYSYGAGAFDYWGQGTLVTVSS
VL: DIQMTQSPSSLSASVGDRVTITCRASQGISSYLAWYQQKPGKAPKLLIYTASTLQSGVPSRFSGSGSGTDFTLTISSLQPEDFATYYCQQIWTVPRTFGQGTKVEIK
notes: Monovalent FabCys
For B5, the “rat/human KD ratio” value in the assay with rat NPR1 (rNPR1) [1] was less than 5. Besides, the Kd came to 2.9 nM with rat NPR1 (rNPR1) [2], 0.2 nM in the assay with hNPR1-ANP complex, 21 nM in assay [3] and 0.5 nM with rNPR1-ANP complex.

B6: XX03 (FabCys format) (Fab, V domains shown)
VH: EVQLLESGGGLVQPGGSLRLSCAASGFTFSSYWMNWVRQAPGKGLEWVSVIESKGNYIFYADSVKGRFTISRDNSKNTLYLQMNSLRAEDTAVYYCARDRYSMIYSYGAGAFDYWGQGTLVTVSS
VL: DIQMTQSPSSLSASVGDRVTITCRASQGISSYLAWYQQKPGKAPKLLIYTASTLQSGVPSRFSGSGSGTDFTLTISSLQPEDFATYYCMQSYEKPRTFGQGTKVEIK
notes: Monovalent FabCys
As for B6, the “rat/human KD ratio” value with rat NPR1 (rNPR1) [1] is less than 5. In addition, the Kd with rat NPR1 (rNPR1) [2] is 1.1 nM; with hNPR1-ANP complex, 0.2 nM; in assay [3], 22 nM; with rNPR1-ANP complex it was 0.1 nM.

B7: XX12 (FabCys format) (Fab, V domains shown)
VH: QVQLLESGGGLVQPGGSLRLSCAASGFTFSSYWMNWVRQAPGKGLEWVSAISSDGSYTYYADSVKGRFTISRDNSKNTLYLQMNSLRAEDTAVYYCARDRYSMIYSYGAGAFDYWGQGTLVTVSS
VL: DIQMTQSPSSLSASVGDRVTITCRASQGISSYLAWYQQKPGKAPKLLIYTASTLQSGVPSRFSGSGSGTDFTLTISSLQPEDFATYYCQQIWMAPRTFGQGTKVEIK
notes: Monovalent FabCys
Regarding B7, the “rat/human KD ratio” value with rat NPR1 (rNPR1) [1] was less than 5. Moreover, the Kd in the assay with rat NPR1 (rNPR1) [2] turned out to be 3 nM; with hNPR1-ANP complex it was 0.2 nM; in assay [3], 16 nM; with rNPR1-ANP complex it was 0.5 nM.

B8: WW06 (FabCys format) (Fab, V domains shown)
VH: QVQLVQSGAEVKKPGESLKISCKGSGYSFTSYWIAWVRQMPGKGLEWMGRIDPDNSYTRYSPSFQGQVTISADKSISTAYLQWSSLKASDTAMYYCARWLSPGYALGEQPAGMDHWGQGTLVTVSS
VL: DIVLTQPPSVSGAPGQRVTISCTGSSSNIGAGYAVHWYQQLPGTAPKLLIYSNNKRPSGVPDRFSGSKSGTSASLAITGLQAEDEADYYCQSYDLQKSSRVFGGGTKLTVL
As for B8, in assay [4], the “cGMP conc [nM] at 2 µM FabCys, +0.075 nM ANP” value stood at 251 nM and the “cGMP conc [nM] at 2 µM FabCys, without ANP” value was 281 nM.
